First the molecules themselves.
T1: CD123 (Homo sapiens (Human), UniProt P26951 19-305, limits assumed)
T1 construct: also called CD123-Signal
T1 sequence: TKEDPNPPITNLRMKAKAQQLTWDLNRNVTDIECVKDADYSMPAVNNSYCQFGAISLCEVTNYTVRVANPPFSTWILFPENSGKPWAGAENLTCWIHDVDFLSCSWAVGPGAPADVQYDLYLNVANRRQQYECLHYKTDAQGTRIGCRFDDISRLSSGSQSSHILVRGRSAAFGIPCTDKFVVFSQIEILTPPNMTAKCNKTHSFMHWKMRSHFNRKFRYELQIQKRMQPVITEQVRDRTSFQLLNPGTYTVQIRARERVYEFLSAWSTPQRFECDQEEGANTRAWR

B1: D domain SEQ ID NO: 710 (designed binder)
chain: MGSWGEFWARLEAIWIRLDALGGSEAELAAFEKEIAAFESELQAYKGKGNPEVEWLREEAADIRRSLQAYRHN
B2: D domain SEQ ID NO: 724 (designed binder)
chain: MGSWYEFEDRLDAIQWRLWALGGSEAELAAFEKEIAAFESELQAYKGKGNPEVEFLRESAANIRQHLQAYRHN
B3: D domain SEQ ID NO: 742 (designed binder)
chain: MGSWIEFESRLWAIEDRLLALGGSEAELAAFEKEIAAFESELQAYKGKGNPEVEFLRLEAADIREDLQAYRHN
B4: D domain SEQ ID NO: 725 (designed binder)
chain: MGSWSEFEYRLFAIENRLDALGGSEAELAAFEKEIAAFESELQAYKGKGNPEVEFLREEAAMIRQLLQAYRHN
B5: D domain SEQ ID NO: 773 (designed binder)
chain: MGSWIEFEDRLEAIEDRLFALGGSEAELAAFEKEIAAFESELQAYKGKGNPEVEWLRQEAAEIRLMLQAYRHN
B6: D domain SEQ ID NO: 771 (designed binder)
chain: MGSWFEFEIRLEAIEDRLFALGGSEAELAAFEKEIAAFESELQAYKGKGNPEVEFLRDEAAEIRQVLQAYRHN
B7: D domain SEQ ID NO: 759 (designed binder)
chain: MGSWYEFEWRLDAIYDRLGALGGSEAELAAFEKEIAAFESELQAYKGKGNPEVEWLREDAAEIRALLQAYRHN
B8: D domain SEQ ID NO: 755 (designed binder)
chain: MGSWYEFENRLEAIEERLWALGGSEAELAAFEKEIAAFESELQAYKGKGNPEVEMLREEAAFIRDWLQAYRHN
B9: D domain SEQ ID NO: 756 (designed binder)
chain: MGSWYEFEYRLEAIEDRLWALGGSEAELAAFEKEIAAFESELQAYKGKGNPEVEYLREEAAWIRVWLQAYRHN
B10: D domain SEQ ID NO: 766 (designed binder)
chain: MGSWFEFWDRLDAIEDRLYALGGSEAELAAFEKEIAAFESELQAYKGKGNPEVEELRDEAAWIRGTLQAYRHN
B11: D domain SEQ ID NO: 758 (designed binder)
chain: MGSWYEFEHRLDAIYDRLWALGGSEAELAAFEKEIAAFESELQAYKGKGNPEVEWLREEAAWIRLWLQAYRHN
B12: D domain SEQ ID NO: 743 (designed binder)
chain: MGSWFEFEDRLDAIWDRLWALGGSEAELAAFEKEIAAFESELQAYKGKGNPEVEFLRMDAAMIRYILQAYRHN
B13: D domain SEQ ID NO: 765 (designed binder)
chain: MGSWIEFWDRLEAIEDRLWALGGSEAELAAFEKEIAAFESELQAYKGKGNPEVEELRDEAAWIRDSLQAYRHN
B14: D domain SEQ ID NO: 748 (designed binder)
chain: MGSWWEFEHRLFAIEDRLWALGGSEAELAAFEKEIAAFESELQAYKGKGNPEVEFLRDYAAEIRDYLQAYRHN
B15: D domain SEQ ID NO: 757 (designed binder)
chain: MGSWYEFENRLGAIGDRLWALGGSEAELAAFEKEIAAFESELQAYKGKGNPEVEWLRDEAAYIRAVLQAYRHN
B16: D domain SEQ ID NO: 749 (designed binder)
chain: MGSWYEFDSRLMAIEDRLWALGGSEAELAAFEKEIAAFESELQAYKGKGNPEVEYLRQEAAEIRMILQAYRHN
B17: D domain SEQ ID NO: 751 (designed binder)
chain: MGSWYEFYNRLDAIEDRLWALGGSEAELAAFEKEIAAFESELQAYKGKGNPEVEYLRQEAADIRGQLQAYRHN
B18: D domain SEQ ID NO: 750 (designed binder)
chain: MGSWYEFEWRLMAIEDRLWALGGSEAELAAFEKEIAAFESELQAYKGKGNPEVEYLRHEAAEIRDVLQAYRHN
B19: D domain SEQ ID NO: 754 (designed binder)
chain: MGSWYEFEERLWAIEERLYALGGSEAELAAFEKEIAAFESELQAYKGKGNPEVEYLRYEAAWIRDFLQAYRHN
B20: D domain SEQ ID NO: 753 (designed binder)
chain: MGSWYEFWDRLEAIEERLWALGGSEAELAAFEKEIAAFESELQAYKGKGNPEVEYLRLEAADIRRILQAYRHN
B21: D domain SEQ ID NO: 770 (designed binder)
chain: MGSWWEFEMRLEAIEDRLFALGGSEAELAAFEKEIAAFESELQAYKGKGNPEVESLRWEAAFIRDILQAYRHN
B22: D domain SEQ ID NO: 762 (designed binder)
chain: MGSWFEFEWRLEAIFDRLYALGGSEAELAAFEKEIAAFESELQAYKGKGNPEVEVLRAEAAEIRLRLQAYRHN
B23: D domain SEQ ID NO: 768 (designed binder)
chain: MGSWVEFVDRLEAIEDRLFALGGSEAELAAFEKEIAAFESELQAYKGKGNPEVEFLRDQAAYIRFMLQAYRHN
B24: D domain SEQ ID NO: 747 (designed binder)
chain: MGSWVEFESRLAAIEHRLWALGGSEAELAAFEKEIAAFESELQAYKGKGNPEVEELREYAAEIRDWLQAYRHN
B25: D domain SEQ ID NO: 752 (designed binder)
chain: MGSWWEFHDRLEAIEDRLWALGGSEAELAAFEKEIAAFESELQAYKGKGNPEVEYLRIEAADIRRQLQAYRHN
B26: D domain SEQ ID NO: 761 (designed binder)
chain: MGSWYEFEERLEAIEDRLWALGGSEAELAAFEKEIAAFESELQAYKGKGNPEVEWLREQAAFIRTMLQAYRHN
B27: D domain SEQ ID NO: 772 (designed binder)
chain: MGSWYEFYQRLEAIEDRLFALGGSEAELAAFEKEIAAFESELQAYKGKGNPEVEWLRDEAAEIRVVLQAYRHN
B28: D domain SEQ ID NO: 767 (designed binder)
chain: MGSWEEFTDRLWAIEDRLYALGGSEAELAAFEKEIAAFESELQAYKGKGNPEVEWLRDEAAFIRKSLQAYRHN
B29: D domain SEQ ID NO: 760 (designed binder)
chain: MGSWVEFENRLEAIENRLWALGGSEAELAAFEKEIAAFESELQAYKGKGNPEVEWLREDAAQIRMMLQAYRHN
B30: D domain SEQ ID NO: 744 (designed binder)
chain: MGSWEEFEDRLWAIEDRLWALGGSEAELAAFEKEIAAFESELQAYKGKGNPEVEILRYDAAYIREILQAYRHN
B31: D domain SEQ ID NO: 746 (designed binder)
chain: MGSWYEFWDRLEAIEDRLWALGGSEAELAAFEKEIAAFESELQAYKGKGNPEVEFLRYSAAEIRYQLQAYRHN

The assay has as its target T1, CD123. The experiment in a line: ELISA, format not described. The arrangement: unit not given here. Background: In an ELISA, binding on a coated surface is turned into a signal by an enzyme label.
As to B1, the ELISA_avg came out at 15.

In turn, B2 showed an ELISA_avg of 6.3.

B3 registered an ELISA_avg of 8.7.

Consider B4, for which the ELISA_avg was 3.2.

B5 yielded an ELISA_avg of 21.8.

B6: the ELISA_avg worked out at 3.

Turning to B7, the ELISA_avg was found to be 6.

For B8, the ELISA_avg was determined as 6.1.

Consider B9, for which the ELISA_avg was 6.2.

In turn, B10 registered an ELISA_avg of 4.9.

With B11, the ELISA_avg is 6.3.

Regarding B12, the ELISA_avg was determined as 5.1.

In turn, B13 had an ELISA_avg of 4.5.

In the case of B14, the ELISA_avg worked out at 7.6.

B15 came in with an ELISA_avg of 4.8.

Consider B16, for which the ELISA_avg came to 3.2.

B17 returned an ELISA_avg of 11.3.

B18 yielded an ELISA_avg of 3.4.

B19 gave an ELISA_avg of 5.4.

With B20, the ELISA_avg turned out to be 4.6.

B21 showed an ELISA_avg of 4.

B22: the ELISA_avg came out at 6.9.

As for B23, the ELISA_avg came to 4.9.

With B24, the ELISA_avg worked out at 3.7.

As for B25, the ELISA_avg was found to be 6.4.

Regarding B26, the ELISA_avg was found to be 6.

As to B27, the ELISA_avg came out at 3.

B28 came in with an ELISA_avg of 8.9.

In the case of B29, the ELISA_avg was determined as 6.2.

On to B30, for which the ELISA_avg amounted to 4.1.

B31 gave an ELISA_avg of 4.2.

The values above are taken from patent US20250026849A1 (ARCELLX, published 2025).
